Data on six substances can be found in article PMC8204860.

The experiment deals with TRAPPIII complex, P46944;P38334;Q03337;P36149;Q03784;Q03630;Q99394. Nature of the experiment: in vivo anchor-away assay (colocalization of Trs85-mNeonGreen with mitochondrially anchored Rab, fluorescence microscopy). The settings on record: parent: est. 0.55; read off a plot.

For the substance “chimeric construct containing the NBD of Rab11/Ypt31 and the HVD of Rab1/Ypt1, mitochondrially anchored L198A; T199A; N200A; T201A”, the other: Mander's Overlap Coefficient was 0.21.
Next, “chimeric construct containing the NBD of Rab11/Ypt31 and the HVD of Rab1/Ypt1, mitochondrially anchored K194A; Q196A; S197A”: 0.28; “chimeric construct containing the NBD of Rab11/Ypt31 and the HVD of Rab1/Ypt1, mitochondrially anchored K184A; K185A; E186A”: 0.58.
As for “chimeric construct containing the NBD of Rab11/Ypt31 and the HVD of Rab1/Ypt1, mitochondrially anchored V191A; N192A; L193A”, the other: Mander's Overlap Coefficient amounted to 0.3.
In the case of “chimeric construct containing the NBD of Rab11/Ypt31 and the HVD of Rab1/Ypt1, mitochondrially anchored T181A; T182A; Q183A” it was 0.54; in that of “chimeric construct containing the NBD of Rab11/Ypt31 and the HVD of Rab1/Ypt1, mitochondrially anchored D187A; K188A; N190A”, 0.68.
